Measurements reported in PMC5473807, “Distribution and kinetics of the Kv1.3-blocking peptide HsTX1[R14A] in experimental rats” (Scientific Reports, 2017).
Where two headings read alike, the source gives them in different places.

Experiment: In vivo biodistribution by organ and tissue extraction
Parameters: species or system male Wistar rats
Settings: male, Wistar, total radioactivity, rat, mean ± SD; for tissue uptake dose at 48 h / SUV at 48 h: 2880 min p.i.; for tissue uptake dose at 5 min / SUV at 5 min: 5 min p.i.; for tissue uptake dose at 1 h / SUV at 1 h: 60 min p.i.; for tissue uptake dose at 4 h / SUV at 4 h: 240 min p.i.; for tissue uptake dose at 24 h / SUV at 24 h: 1440 min p.i.
Protocol: The present study includes data obtained from a total of 50 animals. Four animals (body weight 227 ± 10 g) for each time point were injected intravenously into a tail vein or subcutaneously with approximately 0.3 MBq ([…]) [^64Cu]Cu-NOTA-HsTX1[R14A] conjugate in 0.5 mL electrolyte solution E-153 (Serumwerk Bernburg, Germany). Animals were euthanised at 5, 60, 240, 1440 and 2880 min post-injection. Blood and the major organs were collected, weighed, and counted in a cross-calibrated γ-counter (Isomed 1000, Isomed GmbH, Dresden) and Wallac WIZARD Automatic Gamma Counter (PerkinElmer, Germany). The radioactivity of the tissue samples was decay-corrected and calibrated by comparing the counts in tissue with the counts in aliquots of the injected radiotracer that had been measured in the γ-counter at the same time. The activity in the selected organs was expressed as percent-injected dose per organ (% ID) and the activity concentration in tissues and organs as standardised uptake value (SUV). Values are quoted as mean ± standard error of mean (SEM) for each group of four animals.

[1] = lung, iv, 0.3 MBq, i.v., n=4, read-out: Lung activity amount
[2] = lung, iv, 0.3 MBq, i.v., n=8, read-out: Lung activity amount
[3] = lung, iv, i.v., n=4, read-out: Lung SUV
[4] = lung, iv, i.v., n=8, read-out: Lung SUV
[5] = lung, sc, 0.3 MBq, s.c., n=4, read-out: Lung activity amount
[6] = lung, sc, s.c., n=4, read-out: Lung SUV
[7] = muscle, iv, i.v., n=4, read-out: Muscle SUV
[8] = muscle, iv, i.v., n=8, read-out: Muscle SUV
[9] = muscle, sc, s.c., n=4, read-out: Muscle SUV
[10] = pancreas, iv, 0.3 MBq, i.v., n=4, read-out: Pancreas SUV
[11] = pancreas, iv, 0.3 MBq, i.v., n=4, read-out: Pancreas activity amount
[12] = pancreas, iv, 0.3 MBq, i.v., n=8, read-out: Pancreas SUV
[13] = pancreas, iv, 0.3 MBq, i.v., n=8, read-out: Pancreas activity amount
[14] = pancreas, sc, 0.3 MBq, s.c., n=4, read-out: Pancreas SUV
[15] = pancreas, sc, 0.3 MBq, s.c., n=4, read-out: Pancreas activity amount
[16] = spleen, iv, 0.3 MBq, i.v., n=4, read-out: Spleen SUV
[17] = spleen, iv, 0.3 MBq, i.v., n=4, read-out: Spleen activity amount
[18] = spleen, iv, 0.3 MBq, i.v., n=8, read-out: Spleen SUV
[19] = spleen, iv, 0.3 MBq, i.v., n=8, read-out: Spleen activity amount
[20] = spleen, sc, 0.3 MBq, s.c., n=4, read-out: Spleen SUV
[21] = spleen, sc, 0.3 MBq, s.c., n=4, read-out: Spleen activity amount
[22] = stomach, iv, 0.3 MBq, i.v., n=4, read-out: Stomach activity amount
[23] = stomach, iv, 0.3 MBq, i.v., n=8, read-out: Stomach activity amount
[24] = stomach, sc, 0.3 MBq, s.c., n=4, read-out: Stomach activity amount
[25] = testes, iv, 0.3 MBq, i.v., n=4, read-out: Testes SUV

**Q.** With `CSCC[C@@H]1NC(=O)[C@@H]2CSSC[C@H](NC(=O)[C@H](CO)NC(=O)[C@H](C)NC(=O)COCCOCCNC(=O)CN3CCN(CC(=O)O)CCN(CC(=O)O)CC3)C(=O)N[C@@H](CCCNC(=N)N)C(=O)N[C@@H]([C@@H](C)O)C(=O)N3CCC[C@H]3C(=O)N[C@@H](CCCCN)C(=O)N[C@@H](CC(=O)O)C(=O)N[C@H]3CSSC[C@H](NC(=O)[C@H](CCCCN)NC(=O)[C@H](CCCNC(=N)N)NC(=O)[C@H](CC(N)=O)NC1=O)C(=O)N[C@@H](CCCCN)C(=O)N[C@H]1CSSC[C@H](NC(=O)[C@@H]4CCCN4C(=O)[C@H](CC(=O)O)NC(=O)[C@H](C)NC3=O)C(=O)N[C@@H](C)C(=O)N[C@@H](CCCCN)C(=O)N[C@@H](CCC(=O)O)C(=O)N[C@@H]([C@@H](C)O)C(=O)NCC(=O)N[C@@H](CSSC[C@@H](C(N)=O)NC(=O)[C@H](CCCNC(=N)N)NC(=O)[C@H](CC(N)=O)NC1=O)C(=O)N1CCC[C@H]1C(=O)N[C@@H](Cc1ccc(O)cc1)C(=O)NCC(=O)N[C@@H](CCCCN)C(=O)N2` [[^64Cu]Cu-NOTA-HsTX1[R14A], metal not drawn] as the compound, how does the tissue uptake dose at 48 h (liver, sc, 0.3 MBq, s.c., n=4, read-out: Liver activity amount) read?
**A.** 7.85 ± 0.49 %ID

**Q.** And the tissue uptake dose at 5 min [1]?
**A.** 1.44 ± 0.18 %ID

**Q.** And the tissue uptake dose at 1 h [2]?
**A.** 1.24 ± 0.3 %ID

**Q.** And the tissue uptake dose at 4 h [1]?
**A.** 0.92 ± 0.12 %ID

**Q.** What about the tissue uptake dose at 24 h [2] of the same compound?
**A.** 0.5 ± 0.05 %ID

**Q.** What about the tissue uptake dose at 48 h [1] of the same compound?
**A.** 0.46 ± 0.06 %ID

**Q.** What about the SUV at 5 min [3] of the same compound?
**A.** 2.87 ± 0.32 SUV

**Q.** What about the SUV at 1 h [4] of the same compound?
**A.** 1.98 ± 0.17 SUV

**Q.** What about the SUV at 4 h [3] of the same compound?
**A.** 1.24 ± 0.1 SUV

**Q.** What about the SUV at 24 h [4] of the same compound?
**A.** 0.78 ± 0.13 SUV

**Q.** What about the SUV at 48 h [3] of the same compound?
**A.** 0.55 ± 0.03 SUV

**Q.** What about the tissue uptake dose at 1 h [5] of the same compound?
**A.** 1.64 ± 0.24 %ID

**Q.** And the tissue uptake dose at 4 h [5]?
**A.** 1.04 ± 0.08 %ID

**Q.** What about the tissue uptake dose at 24 h [5] of the same compound?
**A.** 0.49 ± 0.02 %ID

**Q.** And the tissue uptake dose at 48 h [5]?
**A.** 0.33 ± 0.01 %ID

**Q.** And the SUV at 1 h [6]?
**A.** 2.1 ± 0.33 SUV

**Q.** What about the SUV at 4 h [6] of the same compound?
**A.** 1.32 ± 0.12 SUV

**Q.** What about the SUV at 24 h [6] of the same compound?
**A.** 0.63 ± 0.02 SUV

**Q.** And the SUV at 48 h [6]?
**A.** 0.47 ± 0.01 SUV

**Q.** And the SUV at 5 min [7]?
**A.** 0.43 ± 0.03 SUV

**Q.** What about the SUV at 1 h [8] of the same compound?
**A.** 0.17 ± 0.06 SUV

**Q.** What about the SUV at 4 h [7] of the same compound?
**A.** 0.07 SUV

**Q.** What about the SUV at 24 h [8] of the same compound?
**A.** 0.18 ± 0.02 SUV

**Q.** What about the SUV at 48 h [7] of the same compound?
**A.** 0.19 ± 0.01 SUV

**Q.** And the SUV at 1 h [9]?
**A.** 0.15 ± 0.02 SUV

**Q.** What about the SUV at 4 h [9] of the same compound?
**A.** 0.08 ± 0.01 SUV

**Q.** What about the SUV at 24 h [9] of the same compound?
**A.** 0.19 ± 0.01 SUV

**Q.** What about the SUV at 48 h [9] of the same compound?
**A.** 0.16 SUV

**Q.** What about the SUV at 5 min [10] of the same compound?
**A.** 0.64 ± 0.09 SUV

**Q.** And the tissue uptake dose at 5 min [11]?
**A.** 0.11 ± 0.03 %ID

**Q.** And the SUV at 1 h [12]?
**A.** 0.3 ± 0.04 SUV

**Q.** And the tissue uptake dose at 1 h [13]?
**A.** 0.06 ± 0.02 %ID

**Q.** And the SUV at 4 h [10]?
**A.** 0.24 ± 0.01 SUV

**Q.** What about the tissue uptake dose at 4 h [11] of the same compound?
**A.** 0.08 %ID

**Q.** And the SUV at 24 h [12]?
**A.** 0.62 ± 0.16 SUV

**Q.** What about the tissue uptake dose at 24 h [13] of the same compound?
**A.** 0.2 ± 0.16 %ID

**Q.** What about the SUV at 48 h [10] of the same compound?
**A.** 0.32 ± 0.01 SUV

**Q.** And the tissue uptake dose at 48 h [11]?
**A.** 0.08 ± 0.01 %ID

**Q.** And the SUV at 1 h [14]?
**A.** 0.29 ± 0.03 SUV

**Q.** And the tissue uptake dose at 1 h [15]?
**A.** 0.11 ± 0.03 %ID

**Q.** And the SUV at 4 h [14]?
**A.** 0.25 SUV

**Q.** And the tissue uptake dose at 4 h [15]?
**A.** 0.08 ± 0.01 %ID

**Q.** And the SUV at 24 h [14]?
**A.** 0.48 ± 0.02 SUV

**Q.** What about the tissue uptake dose at 24 h [15] of the same compound?
**A.** 0.15 ± 0.01 %ID

**Q.** And the SUV at 48 h [14]?
**A.** 0.28 ± 0.02 SUV

**Q.** What about the tissue uptake dose at 48 h [15] of the same compound?
**A.** 0.07 ± 0.01 %ID

**Q.** And the SUV at 5 min [16]?
**A.** 4.06 ± 0.6 SUV

**Q.** And the tissue uptake dose at 5 min [17]?
**A.** 0.83 ± 0.12 %ID

**Q.** And the SUV at 1 h [18]?
**A.** 3.42 ± 0.42 SUV

**Q.** What about the tissue uptake dose at 1 h [19] of the same compound?
**A.** 0.79 ± 0.11 %ID

**Q.** What about the SUV at 4 h [16] of the same compound?
**A.** 2.4 ± 0.1 SUV

**Q.** And the tissue uptake dose at 4 h [17]?
**A.** 0.67 ± 0.06 %ID

**Q.** What about the SUV at 24 h [18] of the same compound?
**A.** 0.83 ± 0.26 SUV

**Q.** And the tissue uptake dose at 24 h [19]?
**A.** 0.18 ± 0.04 %ID

**Q.** And the SUV at 48 h [16]?
**A.** 0.56 ± 0.05 SUV

**Q.** What about the tissue uptake dose at 48 h [17] of the same compound?
**A.** 0.16 ± 0.01 %ID

**Q.** And the SUV at 1 h [20]?
**A.** 4 ± 0.21 SUV

**Q.** And the tissue uptake dose at 1 h [21]?
**A.** 1.08 ± 0.03 %ID

**Q.** And the SUV at 4 h [20]?
**A.** 2.84 ± 0.25 SUV

**Q.** And the tissue uptake dose at 4 h [21]?
**A.** 0.75 ± 0.03 %ID

**Q.** And the SUV at 24 h [20]?
**A.** 0.59 ± 0.03 SUV

**Q.** And the tissue uptake dose at 24 h [21]?
**A.** 0.15 %ID

**Q.** And the SUV at 48 h [20]?
**A.** 0.47 ± 0.04 SUV

**Q.** What about the tissue uptake dose at 48 h [21] of the same compound?
**A.** 0.15 ± 0.01 %ID

**Q.** And the tissue uptake dose at 5 min [22]?
**A.** 0.67 ± 0.09 %ID

**Q.** And the tissue uptake dose at 1 h [23]?
**A.** 1.28 ± 1.2 %ID

**Q.** What about the tissue uptake dose at 4 h [22] of the same compound?
**A.** 1.52 ± 1.06 %ID

**Q.** What about the tissue uptake dose at 24 h [23] of the same compound?
**A.** 1.56 ± 1.04 %ID

**Q.** And the tissue uptake dose at 48 h [22]?
**A.** 1.46 ± 0.37 %ID

**Q.** What about the tissue uptake dose at 1 h [24] of the same compound?
**A.** 1.14 ± 0.45 %ID

**Q.** And the tissue uptake dose at 4 h [24]?
**A.** 0.6 ± 0.03 %ID

**Q.** What about the tissue uptake dose at 24 h [24] of the same compound?
**A.** 0.82 ± 0.07 %ID

**Q.** What about the tissue uptake dose at 48 h [24] of the same compound?
**A.** 1.72 ± 1.02 %ID

**Q.** What about the SUV at 5 min [25] of the same compound?
**A.** 0.24 ± 0.03 SUV

**Q.** What about the tissue uptake dose at 5 min (testes, iv, 0.3 MBq, i.v., n=4, read-out: Testes activity amount) of the same compound?
**A.** 0.27 ± 0.05 %ID

**Q.** What about the SUV at 1 h (testes, iv, 0.3 MBq, i.v., n=8, read-out: Testes SUV) of the same compound?
**A.** 0.16 ± 0.01 SUV

**Q.** And the tissue uptake dose at 1 h (testes, iv, 0.3 MBq, i.v., n=8, read-out: Testes activity amount)?
**A.** 0.23 ± 0.02 %ID

**Q.** What about the SUV at 4 h [25] of the same compound?
**A.** 0.13 ± 0.01 SUV
